Square brackets hold non-standard residues; d marks the D form. Ends that are not written are not given here. Ahx = NCCCCCC(=O)O
T1: rat pancreatic islet (wild type) GIP-receptor stably expressed on CHO-K1 cells (rat, UniProt P43219 19-455)
T1 sequence (looked up): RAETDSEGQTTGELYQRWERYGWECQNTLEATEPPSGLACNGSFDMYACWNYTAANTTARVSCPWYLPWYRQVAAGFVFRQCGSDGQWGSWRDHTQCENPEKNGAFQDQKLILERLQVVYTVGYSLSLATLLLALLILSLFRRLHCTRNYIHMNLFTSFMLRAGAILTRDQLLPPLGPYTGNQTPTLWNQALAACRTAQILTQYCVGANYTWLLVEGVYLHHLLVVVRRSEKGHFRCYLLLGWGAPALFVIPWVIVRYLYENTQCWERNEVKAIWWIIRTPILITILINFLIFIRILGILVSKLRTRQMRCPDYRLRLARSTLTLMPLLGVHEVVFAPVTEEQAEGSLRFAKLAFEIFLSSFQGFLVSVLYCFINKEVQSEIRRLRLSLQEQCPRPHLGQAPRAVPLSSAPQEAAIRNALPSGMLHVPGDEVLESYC


Key:
[1] = molecular target: T1, rat pancreatic islet (wild type) …; assay: cell-based or functional assay
[2] = molecular target: T1, rat pancreatic islet (wild type) …; assay: competition with 125I-GIP on CHO-K1 cells transfected with rat GIP receptor
Experimental: (§1) Cells were cultured in DMEM/F12, supplemented with 10% newborn calf serum, 50 units/ml penicillin G, and 50 μg/ml streptomycin (Culture media and antibiotics from Gibco BRL, Life Technologies). Cells were grown in 75 cm² flasks until 80-90% confluent, when they were split and seeded onto 24 well plates at a density of 50,000 cells/well. Experiments were carried out 48 h later.
(§2) Binding studies using ¹²⁵I-labeled spGIP₁₋₄₂, purified by high performance liquid chromatography (HPLC), were performed essentially as described previously-[21]. wtGIP-R1 Cells (1-5×10⁵/well) were washed twice at 4° C. in binding buffer (BB), consisting of DMEM/F12 (GIBCO), 15 mM HEPES, 0.1% bovine serum albumin (BSA), 1% Trasylol (aprotinin; Bayer), pH 7.4. They were incubated for 12-16 h at 4° C. with ¹²⁵I-spGIP (50,000 cpm) in the presence or absence of unlabeled GIP₁₋₄₂ or analogue. Following incubation, cells were washed twice with ice cold buffer, solubilized with 0.1 M NaOH (1 ml), and transferred to culture tubes for counting of cell-associated radioactivity. Nonspecific binding was defined as that measured in the presence of 1 μM GIP₁₋₄₂ or GIP₁₋₃₀, and specific binding expressed as % of binding in the absence of competitor (% B/Bo).

[3] = molecular target: T1, rat pancreatic islet (wild type) …; assay: displacement of 125I-GIP from CHO-K1 cells transfected with rat GIP receptor, 20 µM peptide
Experimental: as §1, §2

Binder	Max. cAMP (Fold Basal) [1] [fold basal]	cAMP Production EC50 [1] [µM]	IC50 [2] [µM]	% Displacement at 20 µM [3] [%]
YAEGTFEKEEKEKEEKEQQDFVNWLLAQK-NH2 (range 1-6;range 19-30; The expected mass 3574.0 fits the 11-residue linker as printed) [GIP(1-6)(EKEEKEKEEKE)(19-30)NH2]	84.9	8.39	4.27	75.1
YAEGTFEKEKQQDFVNWLLAQK-NH2 (range 1-6;range 19-30) [GIP(1-6)(EKEK)(19-30)NH2]	8.17		2.09	86.8
YAEGTFISDYSIAM[Ahx]QQDFVNWLLAQK-NH2 (peptide, UniProt P09681 52-65, looked up, N-terminus assumed; SMILES CC[C@H](C)[C@H](NC(=O)[C@H](CO)NC(=O)[C@H](Cc1ccc(O)cc1)NC(=O)[C@H](CC(=O)O)NC(=O)[C@H](CO)NC(=O)[C@@H](NC(=O)[C@H](Cc1ccccc1)NC(=O)[C@@H](NC(=O)CNC(=O)[C@H](CCC(=O)O)NC(=O)[C@H](C)NC(=O)[C@@H](N)Cc1ccc(O)cc1)[C@@H](C)O)[C@@H](C)CC)C(=O)N[C@@H](C)C(=O)N[C@@H](CCSC)C(=O)NCCCCCC(=O)N[C@@H](CCC(N)=O)C(=O)N[C@@H](CCC(N)=O)C(=O)N[C@@H](CC(=O)O)C(=O)N[C@@H](Cc1ccccc1)C(=O)N[C@H](C(=O)N[C@@H](CC(N)=O)C(=O)N[C@@H](Cc1c[nH]c2ccccc12)C(=O)N[C@@H](CC(C)C)C(=O)N[C@@H](CC(C)C)C(=O)N[C@@H](C)C(=O)N[C@@H](CCC(N)=O)C(=O)N[C@@H](CCCCN)C(N)=O)C(C)C, range 52-65) [GIP(1-14)(Ahx)1(19-30)NH2]	102	1.41	2.71	86.1
YAEGTFISDYSIAMAAAAQQDFVNWLLAQK-NH2 (range 1-14;range 19-30) [GIP(1-14)(AAAA)(19-30)NH2]	82.1	5.87e-05	0.0663	100
YAEGTFISDYSIAMEKEKQQDFVNWLLAQK-NH2 (range 1-14;range 19-30) [GIP(1-14)(EKEK)(19-30)NH2]	80.6	7.7e-05	0.026	98.7
YAEGTFISDYSIAM[Ahx][Ahx]QQDFVNWLLAQK-NH2 (peptide, UniProt P09681 52-65, looked up, N-terminus assumed; SMILES CC[C@H](C)[C@H](NC(=O)[C@H](CO)NC(=O)[C@H](Cc1ccc(O)cc1)NC(=O)[C@H](CC(=O)O)NC(=O)[C@H](CO)NC(=O)[C@@H](NC(=O)[C@H](Cc1ccccc1)NC(=O)[C@@H](NC(=O)CNC(=O)[C@H](CCC(=O)O)NC(=O)[C@H](C)NC(=O)[C@@H](N)Cc1ccc(O)cc1)[C@@H](C)O)[C@@H](C)CC)C(=O)N[C@@H](C)C(=O)N[C@@H](CCSC)C(=O)NCCCCCC(=O)NCCCCCC(=O)N[C@@H](CCC(N)=O)C(=O)N[C@@H](CCC(N)=O)C(=O)N[C@@H](CC(=O)O)C(=O)N[C@@H](Cc1ccccc1)C(=O)N[C@H](C(=O)N[C@@H](CC(N)=O)C(=O)N[C@@H](Cc1c[nH]c2ccccc12)C(=O)N[C@@H](CC(C)C)C(=O)N[C@@H](CC(C)C)C(=O)N[C@@H](C)C(=O)N[C@@H](CCC(N)=O)C(=O)N[C@@H](CCCCN)C(N)=O)C(C)C, range 52-65) [GIP(1-14)(Ahx)2(19-30)NH2]	95.9	2.51	2.77	85.8
YAEGTF[Ahx]QQDFVNWLLAQK-NH2 (peptide, UniProt P09681 52-57, looked up, N-terminus assumed; SMILES CC(C)C[C@H](NC(=O)[C@H](CC(C)C)NC(=O)[C@H](Cc1c[nH]c2ccccc12)NC(=O)[C@H](CC(N)=O)NC(=O)[C@@H](NC(=O)[C@H](Cc1ccccc1)NC(=O)[C@H](CC(=O)O)NC(=O)[C@H](CCC(N)=O)NC(=O)[C@H](CCC(N)=O)NC(=O)CCCCCNC(=O)[C@H](Cc1ccccc1)NC(=O)[C@@H](NC(=O)CNC(=O)[C@H](CCC(=O)O)NC(=O)[C@H](C)NC(=O)[C@@H](N)Cc1ccc(O)cc1)[C@@H](C)O)C(C)C)C(=O)N[C@@H](C)C(=O)N[C@@H](CCC(N)=O)C(=O)N[C@@H](CCCCN)C(N)=O, range 52-57) [GIP(1-6)(Ahx)1(19-30)NH2]	95.9	14.5	8.73	62
YAEGTF[Ahx][Ahx]QQDFVNWLLAQK-NH2 (peptide, UniProt P09681 52-57, looked up, N-terminus assumed; SMILES CC(C)C[C@H](NC(=O)[C@H](CC(C)C)NC(=O)[C@H](Cc1c[nH]c2ccccc12)NC(=O)[C@H](CC(N)=O)NC(=O)[C@@H](NC(=O)[C@H](Cc1ccccc1)NC(=O)[C@H](CC(=O)O)NC(=O)[C@H](CCC(N)=O)NC(=O)[C@H](CCC(N)=O)NC(=O)CCCCCNC(=O)CCCCCNC(=O)[C@H](Cc1ccccc1)NC(=O)[C@@H](NC(=O)CNC(=O)[C@H](CCC(=O)O)NC(=O)[C@H](C)NC(=O)[C@@H](N)Cc1ccc(O)cc1)[C@@H](C)O)C(C)C)C(=O)N[C@@H](C)C(=O)N[C@@H](CCC(N)=O)C(=O)N[C@@H](CCCCN)C(N)=O, range 52-57) [GIP(1-6)(Ahx)2(19-30)NH2]	2.55		4.98	75.3
YAEGTF[Ahx][Ahx][Ahx]QQDFVNWLLAQK-NH2 (peptide, UniProt P09681 52-57, looked up, N-terminus assumed; SMILES CC(C)C[C@H](NC(=O)[C@H](CC(C)C)NC(=O)[C@H](Cc1c[nH]c2ccccc12)NC(=O)[C@H](CC(N)=O)NC(=O)[C@@H](NC(=O)[C@H](Cc1ccccc1)NC(=O)[C@H](CC(=O)O)NC(=O)[C@H](CCC(N)=O)NC(=O)[C@H](CCC(N)=O)NC(=O)CCCCCNC(=O)CCCCCNC(=O)CCCCCNC(=O)[C@H](Cc1ccccc1)NC(=O)[C@@H](NC(=O)CNC(=O)[C@H](CCC(=O)O)NC(=O)[C@H](C)NC(=O)[C@@H](N)Cc1ccc(O)cc1)[C@@H](C)O)C(C)C)C(=O)N[C@@H](C)C(=O)N[C@@H](CCC(N)=O)C(=O)N[C@@H](CCCCN)C(N)=O, range 52-57) [GIP(1-6)(Ahx)3(19-30)NH2]	13.5		4.03	67.1
YAEGTFISDYSIAMQQDFVNWLLAQK-NH2 (peptide, UniProt P09681 52-65, looked up, range 1-14;range 19-30; Core deletion, no linker (formula 6, D unused, truncated at residue 30)) [GIP(1-14)(19-30)NH2]	127	0.0787	1.37	95.4

— US20050137135A1 (priority 2002, published 2005)
